Key:
[1] = test system: pluripotent cells; test: OCT4 expression (qPCR) in day 30 hES-TEP cultures after survivin inhibitor treatment; type: cell-based, human; details: YM155 20 nM in the final 24 hours of culture, protocol #4c vs #4c+YM155
Experimental: After 108 hours in total on low-adherence plates with endoderm induction media (described above), embryoid bodies were collected and, without being trypsinized, plated on matrigel-coated, 24-well tissue culture plates (approximately 50,000-70,000 cells/well) in SFD medium supplemented with 200 ng/mL recombinant human (rh) Noggin and 10 μM SB431542 (NS) (as described in established protocols Green et al. 2011), with Retinoic Acid (0.25 μM) and FGF8b 50 ng/mL (as a novel modification of this protocol) for 48 hours. […]
(§1) Quantitative Real-Time PCR Total RNA from clusters of ES cells differentiated for the indicated time with the indicated culture method was extracted using Trizol (Invitrogen), and Direct-zol RNA Miniprep Kit (Zymo Research) according to the manufacturer's instructions. […] Real-time quantitative PCR was performed in 20 ul volume using ABI Power SYBR Green PCR Master Mix on an ABI ViiA7 Thermocycler (Applied Biosystems Life Technologies). […] Quantification of each gene transcript was obtained by comparing the average of triplicate experimental CT values to a standard curve of serially diluted genomic DNA for each primer target and then normalized by dividing by the CT housekeeping gene b-Actin.

[2] = test system: NSG mice; test: Teratoma formation after hES-TEP transplantation in mice; type: in vivo, mouse; details: mice grafted with day 30 hES-TEPs treated with YM155
Experimental: Six to ten week old NSG mice were thymectomized as described (Khosravi-Maharlooei et al. 2020) and allowed to recover for at least 3 weeks. After recovery, animals were conditioned with 1.8 Gy total body irradiation (TBI) via X-rays. Cryopreserved fetal swine thymus (60-90 days gestation) was thawed in Medium 199 supplemented with DNAse, gentamicin and HEPES as above. Fetal swine fragments (1-2 mm^3) were injected or not with 2×10^5 hES-derived TEPs with a 28 gauge syringe and coated with 50% matrigel (Corning) in Medium 199. Four to 24 hours after TBI, 1-2×10^6 hES-derived TEPs mixed with 1-2×10^6 thymic mesenchymal cells, 1-2×10^6 thymic mesenchymal cells alone, fetal swine thymus injected with hES-TEPs or fetal swine thymus alone were implanted beneath the kidney capsule and 2×10^5 fetal human CD34+ cells were injected intravenously. Peripheral human immune reconstitution was assayed every 2-3 weeks post-grafting after full recovery as indicated. Blood was collected from the tail vein and immune populations enriched by density gradient centrifugation with Ficoll as described above. […] Gene correlations were evaluated with Pearson Correlation Coefficient with p<0.05 considered significant, linear regression was also performed and r-square determined. Euthanasia due to teratoma growth was plotted on a Kaplan-Meyer plot and analyzed by Mantel Cox Log-rank test to determine p-value. […]

[3] = test system: hESCs; test: qPCR gene expression (PAX9, FOXN1) in hESC-derived TEP cultures up to day 30; type: cell-based, human
Experimental: After 108 hours in total on low-adherence plates with endoderm induction media (described above), embryoid bodies were collected and, without being trypsinized, plated on matrigel-coated, 24-well tissue culture plates (approximately 50,000-70,000 cells/well) in SFD medium supplemented with 200 ng/mL recombinant human (rh) Noggin and 10 μM SB431542 (NS) (as described in established protocols Green et al. 2011), with Retinoic Acid (0.25 μM) and FGF8b 50 ng/mL (as a novel modification of this protocol) for 48 hours. For pharyngeal endoderm, the resulting cells were then treated for 24 hours with FGF8b (50 ng/mL) and Retinoic Acid ([…]) followed by 8 days with FGF8b (50 ng/mL) and Sonic Hedgehog (Shh) (100 ng/mL) (FIG. 1B). For the 3rd pharyngeal pouch specification, cells were then exposed to rhNoggin (200 ng/mL) for 6 days, and then to BMP4 (10 ng/mL) until day 30 of differentiation (FIG. 2A). To avoid the formation of teratomas after engrafting in mice, cells were also exposed to survivin inhibitor YM155 (20 nM) (Lee et al. 2013)) for 24 hours during the last step in the later experiments (FIG. 4A). During the entire process, cell cultures were maintained in a 5% C02/air environment at 37° C. Cells were fed every 24 hours.
as §1, with “instructions. NanoDrop 2000 spectrophotometer (ThermoFisher Scientific) was used to determine RNA concentration.” for “instructions.”

[4] = test system: ESCs; test: Flow cytometry / efficiency of definitive endoderm and anterior foregut endoderm induction; type: cell-based, human; details: day 4.5 dissociated embryoid bodies
Experimental: The differentiation was performed as described Huang et al. 2014 in serum-free differentiation (SFD) medium consisting of DMEM/F12 (3:1) (Life Technologies) supplemented with N2 [Gibco (Life Technologies)], B27 (Gibco), ascorbic acid (50 μg/ml, Sigma), Glutamax (2 mM, Life Technologies), monothioglycerol (0.4 μM, Sigma), 0.05% bovine serum albumin (BSA) (Life Technologies) and 1% penicillin-streptomycin (Thermo Fisher Scientific, Waltham, Mass.). Cells were then briefly trypsinized (0.05%, 1 min at 37° C.) into single cell suspension and plated onto low attachment 6-well plates [Costar 2 (Corning Incorporated, Tewksbury Mass.)] to form embryoid bodies in serum-free differentiation medium containing human BMP4, 0.5 ng/ml, human bFGF, 2.5 ng/ml (R&D Systems) and human activin A, 100 ng/ml (R&D Systems) for 84 hours (3.5 days approximately) on low-adherence plates. Embryoid bodies were then collected, briefly trypsinized (0.05%, 1 min at 37° C.) into 3-10 small cell clumps and resuspended again in endoderm induction medium for another 24 hours. Cells were fed every 24-48 hr (depending on the density) and maintained in a 5% CO2/5% O2/90% N2 environment. […]
Human immune reconstitution and differentiation efficiency of hES-TEP cultures were determined by multi-parametric flow cytometry. […]

`COCCn1c2c([n+](Cc3cnccn3)c1C)C(=O)c1ccccc1C2=O` [YM155] was tested, and the OCT4 expression [1] was “significantly reduced” and the animals developing teratomas [2] was 3 of 15.

B1: Noggin: recombinant human Noggin, a BMP4 antagonist and/or inhibitor (protein, UniProt Q13253 28-232, looked up)
Noggin: QHYLHIRPAPSDNLPLVDLIEHPDPIFDPKEKDLNETLLRSLLGGHYDPGFMATSPPEDRPGGGGGAAGGAEDLAELDQLLRQRPSGAMPSEIKGLEFSEGLAQGKKQRLSKKLRRKLQMWLWSQTFCPVLYAWNDLGSRFWPRYVKVGSCFSKRSCSVPEGMVCKPSKSVHLTVLRWRCQRRGGQRCGWIPIQYPIISECKCSC
With B1 the PAX9 expression ([3]; Noggin from day 16 to day 22, protocols #3c and #4c vs #3b and #4b, day 30) was “significantly increased”.

B2: Activin A: human activin A used in endoderm induction medium (protein, UniProt P08476 311-426, looked up)
Inhibin beta A chain: GLECDGKVNICCKKQFFVSFKDIGWNDWIIAPSGYHANYCEGECPSHIAGTSGSSLSFHSTVINHYRMRGHSPFANLKSCCVPTKLRPMSMLYYDDGQNIIKKDIQNMIVEECGCS
B2 was tested, and the “co-expression of endoderm markers EpCAM and CXCR4, cells” value [4] was 98.3%.

B3: BMP4: human Bone Morphogenic Protein 4 (protein, UniProt P12644 293-408, looked up)
Bone morphogenetic protein 4: SPKHHSQRARKKNKNCRRHSLYVDFSDVGWNDWIVAPPGYQAFYCHGDCPFPLADHLNSTNHAIVQTLVNSVNSSIPKACCVPTELSAISMLYLDEYDKVVLKNYQEMVVEGCGCR
B3 was tested, and the “expression of FoxN1” value ([3]; BMP4 added to day 15 cultures without prior Noggin, assayed at culture day 22 and 30, protocols #3b and #4b) was “failed to induce expression” and the “FOXN1 expression day 30 vs day 21” value ([3]; protocol #4c, before and after BMP4 exposure) was “significantly higher”.
